In publication PMC9747964 (Nature Communications, 2022):
Several values for one entry are separate records, joined by “and”; a condition that tells them apart may be missing. Equal values may be shown once.

Tests used:
[1] = molecular target: ComEAGs (ComEA from Geobacillus stearothermophilus, codons 60-207) (Geobacillus stearothermophilus (ATCC 7953)); assay: AUC; sedimentation velocity, ComEAGs at 31.3 μM (280 nm), fitted to a discrete monomer-dimer equilibrium model (genetic algorithm Monte Carlo); dimer to monomers; apparent; 20 °C, 10 mM Tris pH 8, 100 mM KCl
[2] = molecular target: ComEAGs (ComEA from Geobacillus stearothermophilus, codons 60-207) (Geobacillus stearothermophilus (ATCC 7953)); assay: AUC; sedimentation velocity, ComEAGs at 157 μM, 20 °C, 10 mM Tris pH 8, 100 mM KCl, 60 krpm
[3] = molecular target: ComEAGs-OD (oligomerization domain of ComEAGs alone, codons 60-122) (Geobacillus stearothermophilus (ATCC 7953)); assay: AUC; sedimentation velocity, ComEAGs-OD at 12.7 μM, 37 krpm, 20 °C, 10 mM Tris pH 8, 100 mM KCl
[4] = molecular target: T1, ComEAGs wild-type (Geobacillus stearothermophilus (ATCC …, UniProt A0A0K9HI54 60-207)); assay: EMSA; 0.5 uM DNA, 1 mM MgCl2; cooperative; MW-AUC: 10 mM Tris pH 8, 100 mM KCl, 20 C; EMSA: 10 mM Tris pH 8, 100 mM KCl, 2.5% glycerol, 0.5 mM EDTA, 1 mM MgCl2, room temperature 15 min, 8% native gel in; conditions: protein: recombinant; blunt
T1 sequence: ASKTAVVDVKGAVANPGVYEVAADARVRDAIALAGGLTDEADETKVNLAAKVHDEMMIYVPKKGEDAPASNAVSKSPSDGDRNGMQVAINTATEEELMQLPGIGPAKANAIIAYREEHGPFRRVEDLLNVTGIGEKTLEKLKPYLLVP

[5] = molecular target: T1, ComEAGs wild-type; assay: MW-AUC; 1.5 uM DNA, 5:1 and 10:1 protein:DNA; >90% DNA bound; ~3:1 complex, 3.9-4.0 S; MW-AUC: 10 mM Tris pH 8, 100 mM KCl, 20 C; EMSA: 10 mM Tris pH 8, 100 mM KCl, 2.5% glycerol, 0.5 mM EDTA, 1 mM MgCl2, room temperature 15 min, 8% native gel in; conditions: protein: recombinant; blunt
[6] = molecular target: T1, ComEAGs wild-type; assay: MW-AUC; 1.5 uM DNA, 10:1 protein:DNA; >90% DNA bound; ~7:1 complex, 8.1 S; MW-AUC: 10 mM Tris pH 8, 100 mM KCl, 20 C; EMSA: 10 mM Tris pH 8, 100 mM KCl, 2.5% glycerol, 0.5 mM EDTA, 1 mM MgCl2, room temperature 15 min, 8% native gel in; conditions: protein: recombinant; blunt
[7] = molecular target: the molecule itself; assay: AUC; sedimentation velocity of 31.3 uM ComEAGs, measured at 280 nm, 60 krpm, 20 °C, 10 mM Tris pH 8, 100 mM KCl; fitted to a discrete monomer-dimer reversibly self-associating model by genetic algorithm Monte Carlo analysis (96 iterations); dimer to monomers
[8] = molecular target: the molecule itself; assay: crystal structure; ComEABs crystals, 22% PEG 500, 0.1 M succinate pH 5.5, 20 °C; 3.20 Å
[9] = molecular target: the molecule itself; assay: AUC; sedimentation velocity of ComEAGs-OD at 196 uM, 37 krpm, 20 °C, 10 mM Tris pH 8, 100 mM KCl; molar mass distribution

Molecule “ComEAGs (ComEA from Geobacillus stearothermophilus, codons 60-207) (domain or fragment)” has a Kd [1] of 33.8 µM, a Kd [2] of 10 to 160 µM and a stoichiometry N [2] of 2.

“ComEAGs-OD (oligomerization domain of ComEAGs alone, codons 60-122) (domain or fragment)” showed a stoichiometry N [3] of 2.

B1: EAGs30bp (dsDNA)
DNA 1: GCACTGTGAATATCACTACAGCAACCTTAG
DNA 2: CTAAGGTTGCTGTAGTGATATTCACAGTGC
B1: binds [4].

B2: EAGs14bp (dsDNA)
DNA 1: GTAGGACCATCTGC
DNA 2: GCAGATGGTCCTAC
B2: binds [5].

B3: EAGs40bp (dsDNA)
DNA 1: CGTTAGCACTGTGAATATCACTACAGCAACCTTAGAATCG
DNA 2: CGATTCTAAGGTTGCTGTAGTGATATTCACAGTGCTAACG
B3: binds [6].

B4: ComEA from Geobacillus stearothermophilus, residues 60-207 (domain or fragment)
chain: ASKTAVVDVKGAVANPGVYEVAADARVRDAIALAGGLTDEADETKVNLAAKVHDEMMIYVPKKGEDAPASNAVSKSPSDGDRNGMQVAINTATEEELMQLPGIGPAKANAIIAYREEHGPFRRVEDLLNVTGIGEKTLEKLKPYLLVP
notes: ComEA, Geobacillus stearothermophilus (ATCC 7953), codons 60-207 (without the N-terminal transmembrane region); also called ComEAGs; wild-type ComEAGs; source: E. coli BL21(DE3), purified (His-60 Ni resin, Source 15Q, Hitrap Heparin, Superdex200); not shown: His-Sumo, N-terminal, cleaved
With B4 the koff [7] was 5.27e-05 s⁻¹.

B5: ComEABs (ComEA from Bacillus subtilis, codons 58-205) (domain or fragment, B. subtilis strain 168, UniProt P39694 58-205, looked up)
chain: SNETIVIDIKGAVQHPGVYEMRTGDRVSQAIEKAGGTSEQADEAQVNLAEILQDGTVVYIPKKGEETAVQQGGGGSVQSDGGKGALVNINTATLEELQGISGVGPSKAEAIIAYREENGRFQTIEDITKVSGIGEKSFEKIKSSITVK
notes: ComEA, Bacillus subtilis strain 168, codons 58-205 (lacks the N-terminal transmembrane region); source: E. coli BL21, purified (His-60 resin, Source 15Q, Superdex200); not shown: His6, C-terminal, kept
B5: binds [8].

B6: ComEAGs oligomerization domain alone, residues 60-122 (domain or fragment, Geobacillus stearothermophilus)
chain: ASKTAVVDVKGAVANPGVYEVAADARVRDAIALAGGLTDEADETKVNLAAKVHDEMMIYVPKK
notes: ComEA, Geobacillus stearothermophilus (ATCC 7953), codons 60-122 (oligomerization domain); also called ComEAGs-OD; ComEA-OD; source: E. coli BL21(DE3), purified by the same protocol as wild-type ComEAGs; not shown: His-Sumo, N-terminal, cleaved
For B6, the “stoichiometry N” value [9] was 4 and > 4.
